In the test the target is SARS-CoV-2 spike S1 domain (SARS-CoV-2, ancestral (Wuhan-Hu-1/WA1 …, UniProt P0DTC2)). In words: ELISA. A general note: In an ELISA, binding on a coated surface is turned into a signal by an enzyme label.

B1: ADPT02606 (antibody, V domains shown)
VH: EVQLVESGGGLVKPGGSLRLSCAASGFTFSSYSMNWVRQAPGKGLEWVSSITSSSGYMYYADSVKGRFTISRDNAKNSLYLQLNSLRAEDTAVYYCAKDSAFDLWEVRSYYYVMDVWGQGTTVTVSS
VL: not shown
As to B1, the binding result is reported as “binds”.

The values above are taken from paper PMC10659930 (Cell Chemical Biology, 2023).
